Results as given in the supplement of paper PMC9732359.
± gives the uncertainty stated by the source.

Experiment: protein stability index of a GFP-peptide fusion (yeast GPS) (PSI 1-4); higher = more stable; sorted into four equal gates, so the index is relative within each strain
Summary of the method: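 Tiled 17-residue peptides from yeast proteins were fused downstream of GFP on a plasmid that also expresses Cherry, and the pooled library was carried in yeast. Mid-log cultures grown in leucine-free medium were sorted into four equal gates by GFP/Cherry fluorescence ratio. Plasmids from each gate were PCR-amplified and Illumina-sequenced, and reads were assigned to strains by barcodes. Each peptide's protein stability index is the sum, over gates, of the gate's read frequency multiplied by its gate number.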

| Sequence | protein stability index (doa10∆) | protein stability index (pdr5∆) | protein stability index (san1∆) | protein stability index (ubr1∆) |
| --- | --- | --- | --- | --- |
| AEENLKKRIRLPSEERI [YIL149C/MLP2] | 2.89 ± 0.081 | 2.48 ± 0.066 | 2.61 ± 0.08 | 3.08 ± 0.044 |
| AEKSFKPPKNKYKVVRR [SEC65] | 2.58 ± 0.18 | 3 ± 0.17 | 3.21 ± 0.071 | 3.16 ± 0.13 |
| AELDPSLRTPIAPKITP [SEC65] | 3.06 ± 0.1 | 3.05 ± 0.058 | 3 ± 0.082 | 3.13 ± 0.055 |
| AELIGLQPIFKGEEAKL [SSN3] | 2.54 ± 0.18 | 1.57 ± 0.16 |  | 1.33 ± 0.2 |
| AELIPELYSFQQLVDSE [SNF12] | 1.79 ± 0.08 | 2.12 ± 0.067 | 2.67 ± 0.057 | 1.87 ± 0.047 |
| AELRPLQFKSIREIDVA [RPS7A] | 2.26 ± 0.093 | 1.67 ± 0.1 | 1.97 ± 0.24 | 1.43 ± 0.068 |
| AENMLEELRGQQTEHET [SMC4] | 3.02 ± 0.13 | 2.97 ± 0.2 | 3.32 ± 0.069 | 3.4 ± 0.1 |
| AESEAITVTAKQQPTMQ [SWI3] | 3.14 ± 0.083 | 3.22 ± 0.063 | 2.88 ± 0.071 | 3.04 ± 0.035 |
| AESEWNGVNVQTLKGVG [RPC37] | 1.23 ± 0.075 | 1.79 ± 0.14 |  | 1.13 ± 0.18 |
| AFDLDGTGKSQSGSNSG [ROX3] | 3.44 ± 0.25 | 2.71 ± 0.2 |  | 3.42 ± 0.23 |
| AFEELEGSWDRGIPRIS [PRP8] | 2.88 ± 0.18 | 3.36 ± 0.19 | 3.36 ± 0.22 | 3.3 ± 0.24 |
| AFPKDDRSKPVALTSFL [RPL3] | 2.77 ± 0.1 | 2.75 ± 0.083 | 3.33 ± 0.054 | 1.95 ± 0.045 |
| AFSYPRMYEEASGKEVE [RPN2] | 2.66 ± 0.09 | 1.34 ± 0.082 | 1.28 ± 0.11 | 1.35 ± 0.059 |
| AGAVAPEDIWVRAVNTG [RPP0] |  |  | 1.93 ± 0.28 | 1.31 ± 0.29 |
| AGFTHKLSNWLFGWNDL [YDL088C/ASM4] | 2.69 ± 0.065 | 3.06 ± 0.059 | 2.9 ± 0.063 | 2.93 ± 0.037 |
| AGGAADCQFWETWLGSQ [PRE2] | 3.19 ± 0.18 | 3.19 ± 0.15 | 2.97 ± 0.09 | 3.77 ± 0.13 |
| AGKQLEDGRTLSDYNIQ [RPS31] | 2.81 ± 0.11 | 2.94 ± 0.16 | 3.6 ± 0.094 | 3.15 ± 0.1 |
| AGKWSSKYLIKQIDIPN [ECM29] | 1.55 ± 0.068 | 1.86 ± 0.088 | 2.15 ± 0.087 | 2.05 ± 0.049 |
| AGTEANAVSFDTTFSDF [SRB4] | 3.03 ± 0.042 | 3.06 ± 0.045 | 3.036 ± 0.029 | 3.02 ± 0.038 |
| AGTQSSKFSKQQAKGAF [RPL24A] | 3.2 ± 0.063 | 3.27 ± 0.062 | 3.27 ± 0.035 | 3.17 ± 0.049 |
| AGTTDNSFIKANLPWLG [RPN2] | 1.48 ± 0.1 | 1.72 ± 0.064 | 1.39 ± 0.086 | 1.36 ± 0.065 |
| AGVNNDNTKESKDVKMN [RTT102] | 3.1 ± 0.25 |  |  | 2.35 ± 0.24 |
| AGYTTHLMKRIQKGPVR [RPS17A] | 2.2 ± 0.11 | 2.97 ± 0.15 | 1.86 ± 0.16 | 2.57 ± 0.096 |
| AHFLSLSFTPTTVIGIR [RPN2] | 1.57 ± 0.043 | 1.56 ± 0.041 | 1.28 ± 0.083 | 1.27 ± 0.031 |
| AHLAEIQLNGGSISEKV [RPL3] |  |  |  | 2.86 ± 0.12 |
| AHVFVGTCNGDITTSIM [RPN1] | 2.72 ± 0.048 | 2.78 ± 0.044 | 2.63 ± 0.047 | 2.62 ± 0.053 |
| AIACYSGYNQEDSMIMN [RPB2] | 2.65 ± 0.084 | 1.75 ± 0.072 | 2.67 ± 0.098 | 2.39 ± 0.12 |
